Here are results for three compounds from US10688197B2, “Non-alcoholic fatty liver regulator 14-3-3 protein” (Korea University Research and Business Foundation, priority 2015, dated 2020).

The target in assay [1] is T1, PPARγ2 deletion mutant (1-310) (Homo sapiens, UniProt P37231).
T1 construct: Flag-PPARγ2 (1-310) DNA (4 μg); expressed in transfected cells; host or cells: HEK-293T
T1 sequence (P37231 1-310): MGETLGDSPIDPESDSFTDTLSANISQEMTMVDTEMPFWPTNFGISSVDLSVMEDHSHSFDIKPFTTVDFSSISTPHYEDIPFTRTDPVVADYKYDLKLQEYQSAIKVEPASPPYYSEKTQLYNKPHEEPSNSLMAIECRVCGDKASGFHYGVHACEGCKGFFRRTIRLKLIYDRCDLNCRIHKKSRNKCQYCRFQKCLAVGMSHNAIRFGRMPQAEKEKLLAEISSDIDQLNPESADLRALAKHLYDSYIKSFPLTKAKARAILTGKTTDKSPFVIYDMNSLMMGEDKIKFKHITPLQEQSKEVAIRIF
Kind of assay: GST-pull down assay with PPARγ2 deletion mutant (1-310). In kind it is binding. To be noted: FIG. 3B/3C. The procedure: HEK-293T cells were seeded in a 100 mm plate at a density of 2×10^6 cells per each well, and then transfected with Flag-PPARγ2 (1-505) DNA (4 μg), Flag-PPARγ2 (1-310) DNA (4 μg), Flag-PPARγ2 (139-505) DNA (4 μg), and mGST-14-3-3β (4 μg) or mGST-14-3-3γ (4 μg) using an E-fection plus reagent (Lugen). For Flag-PPARγ2 (1-310) DNA and Flag-PPARγ2 (139-505) DNA, DNA fragments amplified through polymerase chain reaction (PCR) were cloned into a pCMV-3Tag-1 vector using restriction enzymes XhoI and ApaI. A ratio of DNA to the E-fection plus reagent was 1:2, and this method was performed according to a manufacturer's manual. The corresponding cells were washed with ice-cold PBS and lysed using 500 μl/well of a lysis buffer (150 mM NaCl, 1 mM EDTA, 1% Nonidet P-40, 5% glycerol, 25 mM tris-HCl, pH 7.5, protease inhibitor added), and the lysed cells were centrifuged at 10,000×g and 4° C. for 10 minutes to extract proteins. Thereafter, 1,000 μg of the proteins was reacted with 20 μl of glutathione Sepharose 4B beads (GE Healthcare, Buckinghamshire, UK) for 6 hours, and then washing of the beads with 1 ml of ice-cold PBS was repeated 5 times, and the beads were boiled at 100° C. for 10 minutes, followed by 10% SDS-PAGE gel separation and western blotting. A ratio of GST antibodies (Santa Cruz) to Flag antibodies (Santa Cruz) was 1:3000. […]

The target in assay [2] is T2, binding between PPARγ2 and 14-3-3β (Homo sapiens, UniProt P37231).
T2 construct: expressed in transfected cells; host or cells: HEK-293T
T2 sequence (P37231 1-505): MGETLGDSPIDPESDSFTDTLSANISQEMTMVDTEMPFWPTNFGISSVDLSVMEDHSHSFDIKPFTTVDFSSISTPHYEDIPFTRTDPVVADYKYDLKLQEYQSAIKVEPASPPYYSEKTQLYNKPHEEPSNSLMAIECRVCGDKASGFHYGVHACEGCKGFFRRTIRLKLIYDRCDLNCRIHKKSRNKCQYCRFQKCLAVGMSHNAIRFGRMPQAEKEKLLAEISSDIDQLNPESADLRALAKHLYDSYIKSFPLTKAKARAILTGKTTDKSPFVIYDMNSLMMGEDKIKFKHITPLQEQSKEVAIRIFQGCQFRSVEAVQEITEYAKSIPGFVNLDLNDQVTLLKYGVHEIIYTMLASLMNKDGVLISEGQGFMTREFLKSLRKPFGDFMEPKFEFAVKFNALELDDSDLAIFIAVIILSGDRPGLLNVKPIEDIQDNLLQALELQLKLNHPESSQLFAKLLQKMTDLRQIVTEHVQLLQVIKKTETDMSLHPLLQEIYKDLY
T2 sequence (P31946 1-246 partner): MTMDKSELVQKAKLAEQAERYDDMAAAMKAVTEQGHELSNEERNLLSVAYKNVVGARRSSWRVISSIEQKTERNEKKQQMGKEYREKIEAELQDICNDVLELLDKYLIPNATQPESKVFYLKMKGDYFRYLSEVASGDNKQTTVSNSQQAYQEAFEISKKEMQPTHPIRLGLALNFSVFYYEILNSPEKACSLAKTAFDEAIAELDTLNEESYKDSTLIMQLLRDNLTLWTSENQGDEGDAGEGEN
The assay can be described thus: GST-pull down assay, binding between PPARγ2 and 14-3-3β (HEK-293T). The procedure: After transfection, […], washed with ice-cold PBS, and lysed using 500 μl/well of a lysis buffer (150 mM NaCl, 1 mM EDTA, 1% Nonidet P-40, 5% glycerol, 25 mM tris-HCl, pH 7.5, protease inhibitor added), and the lysed cells were centrifuged at 10,000×g and 4° C. for 10 minutes to extract proteins. Thereafter, 1,000 μg of the proteins was reacted with 20 μl of glutathione Sepharose 4B beads (GE Healthcare, Buckinghamshire, UK) for 6 hours, and then washing of the beads with 1 ml of ice-cold PBS was repeated 5 times, and the beads were boiled at 100° C. for 10 minutes, followed by 10% SDS-PAGE gel separation and western blotting. A ratio of GST antibodies (Santa Cruz) to Myc antibodies (self-production) was 1:3000. The detection of each protein was performed using West Pico ECL (Thermo scientific, Rockford, Ill.) and identified in a darkroom.
After transfection, […], washed with ice-cold PBS, and lysed using 500 μl/well of a lysis buffer (150 mM NaCl, 1 mM EDTA, 1% Nonidet P-40, 5% glycerol, 25 mM tris-HCl, pH 7.5, protease inhibitor added), and the lysed cells were centrifuged at 10,000×g and 4° C. for 10 minutes to extract proteins. […]

For “14-3-3β: 14-3-3 isoform protein overexpressed by DNA transfection; increases the transcriptional activity of PPARγ2 by binding to PPARγ2”, the “binding to PPARγ2 deletion mutant (1-310)” value in assay [1] was “bound”.

As for `CCCCCCCC/C=C\CCCCCCCC(=O)O` [oleic acid], the “binding between PPARγ2 and 14-3-3β” value in assay [2] (200 μM oleic acid 72 hours, FIG. 8A) was “increased”.

Regarding “14-3-3γ: 14-3-3 isoform protein overexpressed by DNA transfection; decreases the transcriptional activity of PPARγ2; proposed active ingredient”, the “binding between 14-3-3β and PPARγ2” value in assay [2] (expression amount of 14-3-3γ increased (HA-14-3-3γ DNA 2 and 4 μg), FIG. 5A) is “reduced”. Also, the “binding to PPARγ2 deletion mutant (1-310)” value in assay [1] is “bound”.
